Experimental data: patent US9821050

Biological target: DENV2 (S-16803) intact virus, E glycoprotein on the virion (dengue virus serotype 2 (S-16803))
Assay: cell-based or functional assay

human monoclonal antibody 2D22 showed a Neut50 value of under 0.2 µg/mL.
